Results on four compounds are retold here after patent US8044021B2, “Sustained release of apo A-I mimetic peptides and methods of treatment” (Abbott Cardiovascular Systems Inc., priority 2007, dated 2011).

Ends that are not written are not given here.

Data set [1] in a line: turbidity change of DMPC multilamellar vesicles (MLV) after mixing with peptide. In kind it is physicochemical. On the procedure: A mimetic peptide, SEQ ID NO: 4, was mixed with multilamellar vesicles comprised of DMPC. A DMPC chloroform solution was gently dried by nitrogen stream in the fume hood or by rotor evaporator. Resultant lipid film was further dried in vacuum desiccators and subjected to vacuum for at least 3 hours to remove residual chloroform. Phosphate buffered saline (PBS) was added to the lipid film and mixed using a vortex mixer to prepare an MLV suspension (2.5 mg/mL). The peptide was dissolved in PBS (1 mg/mL) then mixed with the same volume of MLV suspension at room temperature. […] At 0.5 mg/mL mimetic peptide in solution, the absorbance at 400 nm is zero. At 1.25 mg/mL DMPC in solution, the absorbance at 400 nm is 0.1. When the two solutions are combined and after approximately 5 minutes of mixing, the absorbance begins to approach zero. After approximately 15 minutes of mixing, the solution becomes completely clear, i.e., the absorbance is zero, thus evidencing mimetic peptide/phospholipid complexing.

Data set [2] can be described thus: CD spectra after heating then cooling. In kind it is physicochemical. The following applies: 25° C., heated to 70° C., cooled back to 25° C.; 0.0625-0.5 mg/mL. The protocol: As shown in each chart (vii) through (x), a CD spectrum of the mimetic peptide was obtained at t1=25° C., then heated to t2=70° C., then cooled back to t3=25° C. for varying concentrations, e.g., 0.5 mg/mL mimetic peptide, 0.25 mg/mL mimetic peptide, 0.125 mg/mL mimetic peptide, and 0.0625 mg/mL mimetic peptide. The spectrums at t and t3 show a substantially identical spectrum for each of t1 and t3 at the various concentrations, thus indicating the mimetic peptide's secondary structure change is reversible when subjected to heat.

A short description of data set [3]: circular dichroism (CD) spectra, calculated percent secondary structure. Format: physicochemical.
For data set [4], the system named is reverse cholesterol transport. As to conditions: cited from earlier work.

On to `CCCCCCCCCCCCCC(=O)OC[C@H](COP(=O)([O-])OCC[N+](C)(C)C)OC(=O)CCCCCCCCCCCCC` [DMPC, dimyristoylphosphatidylcholine, reference compound], for which the “absorbance at 400 nm” value in data set [1] (1.25 mg/mL DMPC in solution (MLV in PBS)) was found to be 0.1.
In the case of “Ac-DWFKAFYDKVAEKFKEAF-NH2 [SEQ ID NO: 4, 18-mer peptide, 4F, N-acetyl, C-amide]”, the “absorbance at 400 nm” value in data set [1] (0.5 mg/mL mimetic peptide in solution (PBS)) is “zero”. For the same compound, the “secondary structure change when subjected to heat” value in data set [2] was “reversible”. Moreover, the alpha helicity is 10.5% in data set [3] (0.125 mg/mL mimetic peptide), 16% in data set [3] (0.25 mg/mL mimetic peptide) and 19.5% in data set [3] (0.5 mg/mL mimetic peptide).
For “DWFKAFYDKVAEKFKEAF (not fully specified) [D-4F, 18-mer apo A-I mimetic peptide 4F, D enantiomer]”, the “reverse cholesterol transport in vitro” value in data set [4] (when a phospholipid complex is presented) is “function more effectively”. For the same compound, the reverse cholesterol transport entry in data set [4] (without a lipid complex) is recorded as “effective”.
Turning to “PALEDLRQGLLPVLESFKVFLSALEEYTKKLNTQ [33-mer peptide mimetic]”, in data set [4], the “need of phospholipid complex for effective reverse cholesterol transport” value is on record as “requires phospholipid complex formation”.
